Where “and” joins values, the source holds several entries; their conditions need not be identical. Identical values can stand only once. Entries after “also recorded” stand apart in the source; their conditions may differ.
Tests used:
spermatozoa = conditions: inhibitors of PLA2; Roldan and Fragio 1993; Llanos et al 1993; cited from earlier work
sperm and oocytes [1] = experiment: In vitro fertilization (IVF), two-cell embryos scored at 24 h; type: cell-based, mouse; conditions: for comparison with mGX sPLA2 effect (FIG. 7): around 10 μM, 45 min during capacitation or 4 h after gamete mixing
[2] = tested on: Sperm cells from caudae epididymes; experiment: Acrosome reaction assay (coomassie blue staining); type: cell-based, mouse; conditions: for ability to trigger acrosome reaction (AR) / AR induced above basal spontaneous level of AR: uncapacitated sperm; for ability to trigger acrosome reaction (AR): incubated 10 min with sPLA2 (200 nM in FIG. 2A; pro-mGX at 200 nM)
Procedure: Sperm cells from caudae epididymes were allowed to swim in M2 medium for 10 min. Then, sperms were incubated, if necessary, with different sPLA2 in M16 medium at 37° C. for 10 min. Cells were transferred in PBS solution and then fixed with 4% PFA solution for 2 min. Sperm was washed with 100 mM ammonium acetate for 2 min and wet-mounted on slides and allowed to air dry. Slides were then rinsed with water and stained with coomassie blue (0.22%) for 2 min and finally rinsed with water. Slides were counted immediately and 150 sperm cells were scored at least.
The rate of AR increase from 20%, corresponding to spontaneous acrosome-reacted sperm, to 60% in the presence of 200 nM active sPLA2. In order to better characterize the potency of such compounds to trigger AR, dose-response curves for mGX and mGIIA were realized (FIG. 2B).
Sperm were capacitated with 2% BSA in M16 medium, in a 5% CO2 incubator at 37° C. At 45 and 80 min, 200 nM of mGX was introduced in the capacitation medium and sperm were fixed 10 min later. The rates of acrosome-reacted sperm observed in the presence of sPLA2 were compared with control sperm capacitated during 55 or 90 min in the capacitation medium (FIG. 2C). […] Moreover, the difference between spontaneous AR and total rate, corresponding to the sPLA2-induced fraction, was around stable throughout the capacitation progress: ≈39%, ≈36% and ≈35% at 10, 55 and 90 min respectively. It is important to notice that a small fraction of sperm of around 20% was reluctant to spontaneous AR or sPLA2-induced AR even in the presence of a high level of spontaneous AR.

sperm and oocytes [3] = experiment: In vitro fertilization (IVF), two-cell embryos scored at 24 h; type: cell-based, mouse; conditions: for rate of IVF (effect in words): OF1 sperm treated 10 min with 20 or 200 nM mGX
Procedure: Sperm cells, obtained by manual trituration of caudae epididymes from OF1 male mice, were allowed to swim in M2 medium for 10 min. Then, the sperm cells were transferred in M16 medium containing 2% BSA (Bovine Serum Albumen) and incubated 35 min for capacitation. After centrifugation, cells were then transferred in M16 medium and if necessary, incubated with 20 or 200 nM of mGX sPLA2 for 10 min. Sperm cells were centrifugated (1200 rpm, 5 min) and re-suspended in M16 medium to remove […] sPLA2 before to be used for in vitro fertilization experiment. All experiments were carried out at 37° C. Eggs were collected from mature OF1 females (6-weeks old) synchronized with 7.5 units of PMSG (pregnant mare serum gonadotrophin) and 7.5 units of hCG (human chorionic gonadotrophin) before collection.
IVF using standard protocols were carried out. Eggs were incubated with approximately 10^4 sperm cells, and unbound sperms were washed away after 4 hours of incubation. Twenty four hours after fertilization, the two-cell embryos stages (FIG. 4) were scored as an indication of successful fertilization (FIGS. 5 and 6).
In vitro fertilizations (IVF) were realized with sperm capacitated 35 min in 2% BSA and then treated 10 min with 20 or 200 nM mGX. Before treated sperm were introduced within oocytes, sperm were washed and centrifuged to remove sPLA2 in order to avoid artefact effects of sPLA2 on sperm-oocyte fusion (Riffo and Parraga, 1997). sPLA2 contaminant in the IVF medium was below 1 nM for sperm treated at 200 nM.

Sperm cells = experiment: Electron microscopy of sPLA2-induced acrosome reaction; type: cell-based, mouse; conditions: uncapacitated sperm
Procedure: Sperm cells were fixed with 2.5% glutaraldehyde in 0.1 M cacodylate buffer pH 7.4 during 2 hours at room temperature. Cells were then washed with buffer and post fixed with 1% Osmium tetroxyde in the same buffer during 1 hour at 4° C. After extensive washing with water cells were then stained with 0.5% uranile acetate pH 4 overnight at 4° C. Cells were then dehydrated through graded alcohol (30%-60%-90%-100%-100%-100%) and infiltrate with a mix of 1/1 epon/alcohol 100% during 1 hour before several bath of fresh epon (Flukka) during 3 hours. Finally, cells were centrifugated and immersed in fresh Epon and polymerised during 3 days at 60° C. Ultrathin sections of the cell pellet were cut with an ultramicrotome (Leica). Sections were post-stained with 4% uranile acetate and 1% lead citrate before being observed in an electron microscope at 80 kV (JEOL 1200EX).
It was important to check with electron microscopy (EM) that sPLA2 induced a morphologically normal acrosome reaction. The morphological criteria by which an acrosome reaction is evaluated to be normal are relatively limited: first, the outer acrosomal membrane should present vesiculation, second, the plasma membrane should fuse with the outer acrosomal membrane and present a characteristic double hair pin shape at the base of the acrosome (Green, D. P. (1978) The induction of the acrosome reaction in guinea-pig sperm by the divalent metal cation ionophore A23187. J. Cell Sci., 32:137-51.:137-151.)
For these experiments, uncapacitated sperm was used in order to reduce the contribution of spontaneous AR and 200 nM sPLA2 to get maximum sPLA2-induced AR. Sperm were incubated 10 min with mGX sPLA2 or the calcium ionophore A23187 and then fixed. In the presence of A23187, all acrosome-reacted sperm presented complete AR, with the 3 morphological criteria, as described above.

Molecule: CCN(CC)CCCC(C)Nc1c2ccc(Cl)cc2nc2ccc(OC)cc12 (centres unmarked) [mepacrine]
- effect on calcium-ionophore induced acrosome reaction (spermatozoa): block

Molecule: CCCCC/C=C\C/C=C\C/C=C\C/C=C\CCCC(=O)O [arachidonic acid]
- comparison with mGX sPLA2 effect (FIG. 7) (sperm and oocytes [1]): mimic mGX sPLA2

Molecule: O=C(CBr)c1ccc(Br)cc1 [4-bromophenacyl bromide]
- effect on calcium-ionophore induced acrosome reaction (spermatozoa): block

Molecule: Lysophosphocholine [LPC]
- rescue of fertilization decreased by LY329722 (sperm and oocytes [1]; LPC 1 μM during capacitation with LY329722 2 μM (FIG. 8)): rescued
- comparison with mGX sPLA2 effect (FIG. 7) (sperm and oocytes [1]): mimic mGX sPLA2

B1: mGV: Recombinant mouse group V secreted phospholipase A2 (protein, UniProt P97391 21-137, looked up)
Phospholipase A2 group V: GLLELKSMIEKVTGKNAFKNYGFYGCYCGWGGRGTPKDGTDWCCQMHDRCYGQLEEKDCAIRTQSYDYRYTNGLVICEHDSFCPMRLCACDRKLVYCLRRNLWTYNPLYQYYPNFLC
- ability to trigger acrosome reaction (AR) [2]: trigger acrosome reaction

B2: mGIIA: Recombinant mouse group IIA secreted phospholipase A2 (protein, UniProt P31482 22-146, looked up)
Phospholipase A2, membrane …: NIAQFGEMIRLKTGKRAELSYAFYGCHCGLGGKGSPKDATDRCCVTHDCCYKSLEKSGCGTKLLKYKYSHQGGQITCSANQNSCQKRLCQCDKAAAECFARNKKTYSLKYQFYPNMFCKGKKPKC
- AR induced above basal spontaneous level of AR ([2]; 2 nM sPLA2): around 20%
- ability to trigger acrosome reaction (AR) [2]: trigger acrosome reaction; also recorded: able to trigger AR

B3: mGX: Recombinant mouse group X secreted phospholipase A2 (protein, UniProt Q9QXX3 29-151, looked up)
Group 10 secretory …: GLLELAGTLDCVGPRSPMAYMNYGCYCGLGGHGEPRDAIDWCCYHHDCCYSRAQDAGCSPKLDRYPWKCMDHHILCGPAENKCQELLCRCDEELAYCLAGTEYHLKYLFFPSILCEKDSPKCN
- rate of IVF (effect in words) (sperm and oocytes [3]): promotes fertilization
- rate of IVF (effect in words) (sperm and oocytes [3]; listed as mGX sPLA2): increased
- fertilization outcome (2 cell embryo at 24 h post fertilization) (sperm and oocytes [3]; sPLA2 at 200 nM (FIG. 7)): improve fertilization outcome
- rate of two cells embryos stage at 24 hours (IVF rate) (sperm and oocytes [3]; sperm from OF1 males treated 10 min with 200 nM mGX, control 45% (44.0±8.9%)): 65% and 65.4 ± 5.6%
- increase of fertilization rate versus non-treated sperm (sperm and oocytes [1]; C57Bl/6 strain, mGX treated sperm (200 nM)): 142%
- control IVF with sPLA2 present during sperm-oocyte incubation (sperm and oocytes [1]; sperm and oocytes incubated with 1 nM mGX): no difference was noticed
- rate of two-cells embryos stage at 24 hours (sperm and oocytes [1]; sperm from C57Bl/6 males treated with 200 nM mGX, control 8.2%): 19.9%
- kinetic of induced AR compared with A23187 (Sperm cells; 200 nM, 10 min): slower
- morphology of induced acrosome reaction (electron microscopy) (Sperm cells; incubated 10 min (200 nM sPLA2)): normal morphological feature
- ability of mGX to trigger AR with 2 mM Ni2+ ([2]; 200 nM mGX, 2 mM Ni2+ in the bath, n=3): block
- sPLA2-induced fraction (difference between total rate and spontaneous AR) ([2]; 200 nM mGX, 10 min (non-capacitated sperm)): ≈ 39%
- ability of mGX to trigger AR without external calcium ([2]; 200 nM mGX, 10 min, external calcium removed, n=3): block
- sPLA2-induced fraction (difference between total rate and spontaneous AR) ([2]; 200 nM mGX, 55 min of capacitation in 2% BSA): ≈ 36%
- sPLA2-induced fraction (difference between total rate and spontaneous AR) ([2]; 200 nM mGX, 90 min of capacitation in 2% BSA): ≈ 35%
- very low dose from which AR is triggered ([2]; capacitated and uncapacitated sperm, in the absence of oocytes): 0.2 nM
- total rate of acrosome-reacted sperm versus control ([2]; capacitated sperm (2% BSA, 55 or 90 min), 200 nM mGX for the last 10 min): able to trigger acrosome reaction; also recorded: increased at all capacitation durations
- AR induced above basal spontaneous level of AR ([2]; 0.2 nM sPLA2): 15%
- AR induced above basal spontaneous level of AR ([2]; 0.2 nM sPLA2, listed as mGX sPLA2): around 20%
- ability to trigger acrosome reaction (AR) [2]: trigger acrosome reaction; also recorded: able to trigger AR

B4: pro-mGX: the inactive pro-enzyme (precursor molecule) of mGX (protein, UniProt Q9QXX3 18-151, looked up)
pro-form: EATRRSHVYKRGLLELAGTLDCVGPRSPMAYMNYGCYCGLGGHGEPRDAIDWCCYHHDCCYSRAQDAGCSPKLDRYPWKCMDHHILCGPAENKCQELLCRCDEELAYCLAGTEYHLKYLFFPSILCEKDSPKCN
modifications: pro-form
- ability to trigger acrosome reaction (AR) [2]: unable to trigger AR
- ability to trigger acrosome reaction (AR) ([2]; listed as Pro-mGX): unable to trigger sperm acrosome reaction

From patent publication US8758746B2, “Fertilization modulation compounds and process for implementing them” (Universite Joseph Fourier, priority 2009, dated 2014)
